Assay [1] concerns the target 329 SOSIP.v8.2 Env trimer (HIV-1 clade C (isolate 329.14.B1)). In words: native gel or EMSA. (In general: Mobility shift assays separate free from complexed probe on a gel.)
Assay [2] shares this target. The experiment in a line: negative-stain electron microscopy.

Here are results for 1 substance from publication PMC11429718.

One may read the stoichiometry N as the number of molecules, sites or subunits per partner or assembly.

Turning to 329 SOSIP.v8.2 Env trimer (complex), the stoichiometry N in assay [1] and in assay [2] was 3 in each case.
